Assay results published in patent publication CN115536746A (NANJING SANHOME PHARMACEUTICAL CO LTD, dated 2022).

Target: T1, cCRTAM-His (猴源CRTAM蛋白胞外区 + His标签) (猴源 (食蟹猴, cynomolgus monkey))
T1 construct: also called cCRTAM-His蛋白; 食蟹猴CRTAM
T1 chain: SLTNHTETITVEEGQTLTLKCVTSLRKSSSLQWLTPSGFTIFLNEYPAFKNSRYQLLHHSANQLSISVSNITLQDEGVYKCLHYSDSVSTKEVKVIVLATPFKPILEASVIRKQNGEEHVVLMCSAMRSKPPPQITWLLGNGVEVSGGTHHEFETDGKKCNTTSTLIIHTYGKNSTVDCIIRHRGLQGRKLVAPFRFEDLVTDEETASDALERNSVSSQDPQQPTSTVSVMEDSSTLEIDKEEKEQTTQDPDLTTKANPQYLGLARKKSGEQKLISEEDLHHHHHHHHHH
Experiment: ELISA, cCRTAM-His coated at 2 μg/mL

Binder	EC50
HuC94-31 (antibody, V domains shown, also called HuC94-31-biotin; 抗CRTAM人源化抗体HuC94-31) VH: EVQLLESGGGLVQPGGSLRLSCAASGFTFSTSAMSWVRQAPGKGLEWVATISSGGDYTYYSDNVKGRFTISRDNSKSTLYLQMNSLRAEDTAVYYCTLGYDEADYWGQGSLLTVSS VL: DIQMTQSPSSLSASVGDRVTITCRASQDISNYLNWYQQKPGKAPKLLIYYTSRLHSGVPSRFSGSGSGTDYTFTISSLQPEDIATYYCQQGDTFPWTFGGGTKLEIK	4.68 ng/mL
HuC110-34 (antibody, V domains shown, also called HuC110-34-biotin; 抗CRTAM人源化抗体HuC110-34) VH: QVQLVQSGAEVKKPGASVKVSCKASGYTFTNNDINWVKQAPGQRLEWIGWIYPRDGSTQYNEKFRGRATITVDTSASTAYMELSSLRSEDTAVYFCARGLVDYWGQGTLVTVSS VL: DVVMTQSPDSLAVSLGERATINCRSSQSLVHSNKNTYLHWYLQKPGQPPKLLIYKVSNRFSGVPDRFSGSGSGTDFTLTISSLQAEDVAVYYCSQSTRVPWTFGGGTKLEIK	8.17 ng/mL
HuC124-42 (antibody, V domains shown, also called HuC124-42-biotin; 抗CRTAM人源化抗体HuC124-42) VH: QVQLVQSGAEVKKPGSSVKVSCKASGYSFSNYWIEWVRQAPGQGLEWIGEILPGVPTIYYNAKFKDRVTFTADKSTSTAYMELSSLRSEDTAVYYCSRDPWFAYWGQGTLVTVSA VL: EIVLTQSPATLSVSPGERATFSCRASQSIGTSLHWFQQKPGQAPRLLIKYASQSISGIPARFSGSGSGTEFTLTISSVQSEDFAVYYCQQSNNWPFTFGGGTKLEIK	4.78 ng/mL
